Source: a protein production outcome set (Wang et al. 2014)

Experiment: label from the status in PepcDB records

MSSTLWIFYDQYVQRATVDGLPTFIGPGEQATLRISSLKNDIQVRDQDGQCLIMTDGEELHTLPSGESCELTIDGKPYSFLYVGEAPSEKKYYMGHANLVTISNEPSANIVLPSDIEMDCTLLCERKEWTLYPKEGTQAPYVNGRKVSIPTQIVDGDEMLFGRVLLKIIEGNILVVESNETYETTLTQVETPTSLMQQQYPIYRRTPRMIYEQPTDKVEFSMPSEEIDDVGRPLWMILLPPVAIIVIMVTISIVFQRTWMLFMSVPIMTVMAVVATTMFFREKKKRKQKEEKRKRVYSRYLEVKRDELQALADAQRHALMYHFPTFEQMKNKARRVSSRIWERTIDNNDFLDIRIGRSSVPASFELNQPSDELSNRDRDELMDDFDRFREKYSHLENAPLRLSVARGALGYVGKPSIVEREVSQIIGQLAFAHSYHDLRFVAILNEEQRKKWEWMNWLPHFQLPGTEAKGFIYDEKACDHILNPLYHMLRERDLAQKETVEKKREKKRFLPHIVFFVANRSLIAEHGIMEYLEGKDKELGFTVIFLTDVAQNLNEHVHTIVKAVNRNEGEIVLLRNISIHKRFQFDAYDPASNENYARMLPSLHHQQGMTRSIPDMVSFMEMFPGVIQAKDLEIKKRWQTNDSTKSLAVPIGLKAKDELLELDAHEKMHGPHGLLAGTTGSGKSEFLQTYILSLAVNYHPHEVAFLLIDYKGGGMAQPFKGMPHLLGVITNIAESENFSARALASIRSELKKRQRLFDEHTVNHINDYTELYKAGTAKEPMPHLFIISDEFAELKNEEPEFIKELVSAARIGRSLGVHLLLATQKPSGVVDGQIWSNSRFRIALKVQNATDSREILKNEDAAYIKETGRGYLQIGSNEQYDLFQSAWSGAQYLRSAHDGEEEIAYVTDLGLKLVSRAEIKEDREQESITEIEAVVNEIAATTDELAIVPAKSPWLDPLEERIFYEATSSEDEAQAFPFALADDPENQRQFPICYDWGKSGNLMIFGTSGYGKSTTLLTLLLAFAEKRSPEQANYYVLDFGNGALLPLRQLRHTGDYIKMDEGRKLEKLIDYIEKEMERRSELFMEREVSNISVYNEVSDEPLPSIFIVIDNYDILPEEFSDQAPAFTRFARDGQSRGIYVFATVTARNAVKPVLLNSMNMKICHYMIEKTDLTSLLGRVPFAIESVPGRMIVAKDKNWLAHTYLPAKGENDFEVIENVKARIQTINDRYEDSKLPKSMAMLPKTLTLTGLRERIKEEPRLGIPLGLNEETVQPVYIDQDAGAHMVIAGEPKRGKSNVLKVILSFYFETDVEKIVLCDGVDRPLFDFSRKDKALYPTNAEELQHAVEELKQVMEERRMQYDEALQAGTEIPQFRPYLFVIDSFNEFKKMLGVSKEPAFAEMMQLYGHLEFRVIVAADHKDVSLGRGGVMGELKSARQLVLLVKKSAQSLVSFTHDRTEKLEDGFGYHVVNGRDTKIKIPEVVKEEAFIHS
protein production: failed

GRDYVLSANLSLGMNKMKVDKLNGTDNVIWDQNNRWKSSYNDYCLKVGDQVGLIYGFVYDGLYSMDEFYFDPTNNLQAVPWGSTAAENGTSKDAPIMDADGVEHPKTIINQISGDSNSGIATLPGKVKFKDLNGDGYITEDDRTVIGNTNPKVQGGFGLSGQWKGFDFAMNFNFMLDFDVNNATAYQLSSSESNKNKFYNVLSTFADKGWRYTRDGDGECLYKCYYIDGSLDMYRELNEGRTLWNPTDVTKKITHSYFIEDGSFLRCQDLTVGYTLPGNLTSKWGISKARFYVSASNLFIITGYSGYDPEVDIQTGLTCGMDYNRYPRSRSFVLGTNITF
protein production: failed

KLKKKEYEQELKKLQVELVKLQEWVKHKGLKVVVLFEGRDAAGKGGVIKRITEKLNHRVCRVVALPAPTEKEKTQWYFQRYVAHLPSAGEIVLFDRSWYNRAGVEKVMGFCTPDEYEEFLRSCPEFERMLQRSGIILLKYWFSVSDEEQEKRFLGRINTPIKRWKFSPMDLESRHRWAEYSEAKDKMFAYTDTKNCPWWVVPSDSKQKARLNCISHLLSQIEYKALEYP
protein production: not failed

MQTASRAHADSRHGLFLILFSAMLWGTVGITTKALYGLADTTPLSIGFFRLALAVPVLVAACRLATGPAMFRVARRDLGTMIVVGAMTALYQVCYFAAIRQIGVAAATLVTLCTAPVIVALLSAILTGERPSGRVLLSLACALAGTALLVGLRPLAGEGGNIPLGIAQALGSAFSYASVTVASRTLAGRYHPLQPVAIGFAAGALFLLPTALADGLVLTYPAAGWVLLLYLGVVPTALAYALFLAGMRTTTATAASICTLLEPLVSTVLAWLIFGERLGPLGAVGAVLLFGAIGLLARPVRRRQSSAA
protein production: failed

MDRLSDFERLTAEIKSLKESLKEKIDKVLSRSVKEASETSEEKKEQSEIAEEGNEDGDNVLVSSLEDEIDSKEEEVLAASCRLLNMFRELDCTFDGPERRMGRLNLNEITEACSRHIVTAMETEQETLNRAISISNAWKHQVSALFNGGIEGEQIKKDLQRLKASSGDEVYWLIRKAFREARVALRTNVYMKPWNLEERREATLMELLGPLPEIARRRLQGRPRRDDCC
protein production: failed

MDIELPGFDIERELGEGAMATVYLATQRSLQRKVALKVMAAALAADPSFAERFLREGRTLARLSHPNTVTIHDIGNVGSCYYMAMEYLPNGTLKERIQQGLDPEQGLAYVRQVAAALGYAHSQGLVHRDVKPANILFRADGTAVLSDFGIAKSIEDNTQFTQVGFAVGTPSYMSPEQARGQEIDGRADLYALGVVLYEILTGKLPYNGKDSLSTALAHLTEPLPELPIEQGRYQDILRQLLAKDPAERFPTAGALIAALDRLAPSALEATQIRPLATPQGSPRASNPPPAEPAPLPPADLGGLQPVSIQLPPVTPSAGGATPPPPPPSQAAKPPSPPPPPLPPAKPRAGGSRTPLIAAAAAAVLLAIGGGAWWLLGSGDAPSAADPAPLGQTPADKPQQQTPVADAEQDGGERPLLMPGKKTLFQRVLTKPGAAISAEAGGPPRAGAVPAFSVLYVYARKQVGGSPWLRVGASSNGEGDGWLPASAVSDWKQSLVLKFTERSGRAPVMFLNSAEQVERLLGDTRAARDTLTQAVDHKGDPQVVAVEPNDRAIPQDQFYLLPIFDSKESFDADGQPAQLLEVASIDPGGSAAAPQAPGQAGQGGASGAASDTFRTGIVLVVDTSVSMQPYIDRVREVIDGLQRQIGERGDLDKVSFGLVGFRNNTDKTPGLEYVSKTLVPLQPGNDAQRFAELSSQVRATDVSSHSFNEDAFAGIMQAVDEMDWSPYAGRVVLLVTDAGALRKNDPLGRTQMNEAEVRQAALRKGVKIYALHLRTPAGKNNHGYAEQQYRSLTADANPKIADLYIPVAGGEVNAFGNTVKEIGTVFADLVHDAGNRKPQAPRFDAAPSVASKSAAIGYAMQMEFLGRRDPVRAPQVVTAWTADRDLTNPALPAFQVCVLLSKLQLNELQQSLKLIVDAAKRTQTSPKDFFQEIASASAYMSRDPAQLVKGSNLAQSGVLGEYLEGLPYRSKSLNMTQDLWLSLSVAEQQDFIDELESKIRLYETFHNDVANWVRFGDADAGDALYRVPLSTLP
protein production: failed

MPKRSKEDTEITIQKIMDAVVDQLLRLGYDKMSYTTLSQQTGVSRTGISHHFPKKTDFTAALDGRIFKMFIEHLEFEKGLDAFSQSWIKALEDSEFLAILRLLFHHIVTSESAHEFAANGIDRLYKMVESQFGSGGDKELEWLIGRSLIQMSK
protein production: not failed

MPAYVFSKESFLKFLEGHLEDDVVVVVSSDVTDFCKKLSESMVGEKEYCFAEFAFPADIFDADEDEIDEMMKYAIVFVEKEKLSEAGRNAIR
protein production: not failed

MNIEQQLYDVVKQLIEQRYPNDWGGAAAIRVEDGTIYTSVAPDVINASTELCMETGAILEAHKFQKKVTHSICLARENEHSELKVLSPCGVCQERLFYWGPEVQCAITNAKQDIIFKPLKELQPYHWTEAYHDEMVKEWSTR
protein production: not failed

MPDKPMQYVISRLIDNRTRTRILAPVSALTVKAAREKATGQLQAWREEHTQPSMSASPRFDVFVEQTWKPMIFEHWKPSTKRSVLPALNRRLLAHFGRYPLHMINHKMVQAWFDEISKTRKGAANRNLDTLQSVFKLALRQGHCLTNPCIGIRQNKRRVLNRFLSVAEMQRLSVALDECEAVGGSIAQCADVLRLLLLTGCRLSEITFLKGEYVRGNELHLPDSKTGAKVLYIGQAAVDILSRYHCKANTELFPMKQGASTSLVQSLWLRLRKQIGVEDVRLHDLRHTFASYAVMDGCSIPMVASLLGHKKVTMTLRYTHVGDDSVEQASEVIGAVFKGIFTQPEPPKPLIPRTNETPMPAVKVKQKRLPERKPTAKPKPKAVKKVKQVKPLQKLPTLTKEELRAIQRFRDSELFDRVKIG
protein production: failed

MSVKIVHHKNFLGMIKELMKDAQSVLDIGCGVGATLKDFPCPIKIGVDAHGPYLEKARLATSFLPIKYEAQRIGEIFLAKSVDCVSMIDVIEHMEKGVGYEVLAQAERIAVKRVIVFTPRGFFKQKAEDHYGLGGESFQEHRSGWEIEDFTQRGYQVIVFNQFHDQSNLAFVESYGKDAKPMDALLAWKELR
protein production: not failed

MLPVQILKDNAQEERGESARLSSFVGAIAIGDLVKSTLGPKGMDKILISGNPESAGGIKVTNDGATILKSIGVDNPAAKVLVDMSMTQDHEVGDGTTSVTVLAAELLKEAEKLVNQRIHPQTIISGYRRALGIAQESLKKSSIESGDNIRDDLLKIARTTLGSKILSQHKEHFAQLAVDAVLRLKGSGNLDAIQIIKKLGGSMNESYLDEGFLLEKLPGMFQPRRVEKAKILIANTPMDTDKVKVFGSRVRVDGVAKVAELEAAEKLKMKEKVDKILAHNCNVFINRQLIYNYPEQLFADAKVMAIEHADFEGIERLALVLGGEIVSTFDSPQTAQFGSCDLIEEIMIGEDRLLRFSGVKLGEACSVVLRGATQQILDESERSLHDALCVLVTHVKESKTVAGAGASEILMSSAIAVEAQKVAGKEALAVEAFGRALAQLPTIICDNAGLDSAELVTRLRAEHANGRHNMGIDIEKGEVADVTKLGVIESYNVKLCMVSSAAEATEQILRVDDIIKAAPRARAQDNRPC
protein production: not failed

MTTKRVNTATNKIMTLNTFLDTCFLLFISILFYLSIPIYPNKVVVVPQGSLKKVFFSLKEQGVDMNALDLLFLRLMGMPKKGYIDMGDGALRKGDFLVRLIKAKAAQKSATLIPGESRYFFTQILSETYQLETSDLNQAYESIAPRLNGEVIEDGVIWPDTYHLPLGEDAFKIMQTLIGQSMKKHEALSKQWLGYYHKEEWFEKIILASIVQKEAANVEEMPLIASVIFNRLKKGMPLQMDGALNYQEFSHAKVTKERIKTDNTPYNTYKFKGLPKNPVGSVSLEAIRAVIFPKKTDFLYFVKMPDKKHAFSATYKEHLKNINLSNNHF
protein production: failed

YTCSFVGHFSAGKSTLINLLIEQDILPSSPVPTTSNTAIVSVSDNHDIIANLPNQTYAKLSNYDEVREMNRQNVDVESVEINFQSAKFENGFTLQDTPGVDSNVASHQSITEQYMYTSNMIFYTVDYNHVQSELNFKFMKHINDVGIPVVFIINQIDKHQDDELS
protein production: failed

MEIASQEDHDMPIPLNTTFGGGGSHGHMIHHHDHHAANSAPPTHNNNNTTQPPPMPLHGNGHGNNYDHHHHQDPHHVGYNAIIKKPMIKYKECLKNHAAAMGGNATDGCGEFMPSGEDGSIEALTCSACNCHRNFHRKEVEGELAATAMSPYHQHPPHRKLMLNHQKIRSAMPHQMIMPIGVSNYRYMHNNSESEDFMEEDGVTTASRSLPNLPYNQKKRFRTKFTPEQKEKMLSFAEKVGWKIQRQEDCVVQRFCEEIGVKRRVLKVWMHNNKIHFSKKNNINLEDNDNEKINNLNNVDLSGNNDMTKIVP
protein production: failed

MESDIEILSEADASMRKLRIFGIDDREDENGRRRIKDVEVYVPIVCGSIAFYLGKKATEYRTHKWTVYVRGATNEDLGVVIKRVIFHLHPSFNNPTRVVDAPPFALSECGWGEFKIDITVFFHTDVCEKKLELSHVLKLNPENAYGPIPKSIKIPVVAESYNEVVFPDPFESFVARVHNHPAIQISNIPDGLNLPPPGAFLF
protein production: not failed

MRITLVTDSTSDLPQDLRGRLGVRVVPLYVNLSGAIYRDWEEITPTEIFQKVREGAAFPTTSQPSPEDFARVYREALEEADHVLSLHISGKLSGTVQSAELAAQEFPGRVTVVDTQAASLGVGMMVLRAKELLEEGQSLEAVLAELERLRRDHFVRFSVATLEFLKRGGRIGGAQAFLGTLLNLKPVLTLKEGRVEAAGRARGEKKAREEILKAFRAWAEGRKRIRAYFLYSGDEDAVAALRQEVLASGLPVEEALVNELGAVIASHTGPGTYGFYAYSL
protein production: not failed
